In doi:10.1101/774158:

Tests used:
CDA-ZnF-KLF1 = CDA-ZnF-KLF1 (mouse, UniProt P46099 275-358, E321K); experiment: EMSA
WT-ZnF-KLF1 = WT-ZnF-KLF1 (mouse, UniProt P46099 275-358); experiment: EMSA
Sequence of WT-ZnF-KLF1 (P46099 275-358): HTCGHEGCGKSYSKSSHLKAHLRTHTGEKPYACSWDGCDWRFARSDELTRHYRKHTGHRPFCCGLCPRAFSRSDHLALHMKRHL

Sequence of CDA-ZnF-KLF1 (P46099 275-358 E321K): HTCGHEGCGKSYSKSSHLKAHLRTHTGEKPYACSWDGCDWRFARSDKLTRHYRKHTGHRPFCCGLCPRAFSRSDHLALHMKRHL

B1: 9xG (CDA-GGG) (dsDNA)
DNA 1: AGCTAAGGGGGGGGGCA
DNA 2: AGCTTGCCCCCCCCCTT
CDA-ZnF-KLF1
  Kd: 0.696 ± 0.0711 µM
WT-ZnF-KLF1
  Kd: ~4.99 µM
